# Reference: the DeepSol protein solubility set
# Experiment: soluble on expression in E. coli; label from the status in PepcDB or PDB records
row,Sequence,soluble on expression in E. coli
1,MGSDKIHHHHHHMQLIPLAERMRPVLLQDVYGQQHLIGEGMVFRRFVEEGKIPSMILWGPPGVGKTTLAQLLAKTVGLPFYTLSAISSGVKEVREVIANAQTDGKAVLFIDEIHRFSKSQQDALLGAVEKGTIQLIGATTENPSFEVIPALLSRCQVYVLQPLSEEELVELMRSALKKDAYLKTRSVEIKEHDSLLRLSGGDARKLLNLLELVIDASGKDPIVITDAYVQKIAQKKVASYDKNGEMHYDIISAFIKSVRGSDPNAAVYWLARMIEGGEDVEFIARRLLILASEDVGNANPTALVMATTAFDAVRFIGWPESRIILSQVTTYLASSPKSNASYMAINEAQQLVRSHGDLPVPIHLRNAPTKLMKDLDYGKEYKYAHSYEANFVEQEYMPDKLAGKKIFDPGNNAREQELRTFLQKRWKEKYKY,not soluble
2,MTYAVEFDNVSRLYGDVRAVDGVSIAIKDGEFFSMLGPSGSGKTTCLRLIAGFEQLSGGAISIFGKPASNLPPWERDVNTVFQDYALFPHMSILDNVAYGLMVKGVNKKQRHAMAQEALEKVALGFVHQRKPSQLSGGQRQRVAIARALVNEPRVLLLDEPLGALDLKLREQMQLELKKLQQSLGITFIFVTHDQGEALSMSDRVAVFNNGRIEQVDSPRDLYMRPRTPFVAGFVGTSNVFDGLMAEKLCGMTGSFALRPEHIRLNTPGELQANGTIQAVQYQGAATRFELKLNGGEKLLVSQANMTGEELPATLTPGQQVMVSWSRDVMVPLVEER,not soluble
3,MAHHHHHHMNESSIYIYNLTRNVSINHLKEIFMNFGTLKDVQYVTYVEESMFHEKGDGKDGDKKEDNDDKEEDDDKEEDNNKEEDNDKEEDNDKEEDNDNNDDNNDDNNDDNNDDGDDNDDNHICVHIKYENSKEAQAAKEFMDGGQIDGKIISVKYKINHKYIKTYTKKKKEKKKKN,not soluble
4,GEPDAQNWQHTVGKDVVAGLTQREIDRQEVINELFVTEASHLRTLRVLDLIFYQRMKKENLMPREELARLFPNLPELIEIHNSWCEAMKKLREEGPIIKEISDLMLARFDGPAREELQQVAAQFCSYQSIALELIKTKQRKESRFQLFMQEAESHPQCRRLQLRDLIISEMQRLTKYPLLLESIIKHTEGGTSEHEKLCRARDQCREILKYVNEAVKQTENRHRLEGYQKRLDATALERASNPLAAEFKSLDLTTRKMIHEGPLTWRISKDKTLDLHVLLLEDLLVLLQKQDEKLLLKCHSKTAVGSSDSKQTFSPVLKLNAVLIRSVATDKRAFFIICTSKLGPPQIYELVALTSSDKNTWMELLEEAVRNATRHPHHHHHH,soluble
5,MMIAAAIFTTCVDGNKFFYHREIKVLRHLKRFNKPALKSIKSEDGDVIDCVPITNQPAFDHHLLKNHTIQMRPSFYPVSDSTYTKREAKAVTQVWHKAGECPKNTVPIRRTKKEDLLRPKSIRSFGRKSHQSIPRTTTFDPTLGHQYALMGVRNGKFYGTEVAINLWKPYVQIPKEFSLAQTWVVSGNGSSLNTIEAGWQVYPELYDDNNPRFFVYWTRDGYRKTGCYNLLCSGFVQTSNRYTVGGSITTMSRYRGTQYDLSVLIWKDQKTGNWWLRVNEKDVIGYWPGSLFNSLGREATRVEWGGEIINSKTGGRHTTTDMGSGHFADEGFKKASYFRNLKIVDGTNTLREPQGLYFFADKHNCYNVKTGNGGTSWGAHFFYGGPGRNVKCP,soluble
6,MNLNKNLPTGTRDKLFREARASYQIEQQVNHYFAKRGFKRIETPVIEFEDVFSSEHQADAKLYRFFDEKGRLTVLRPDMTLPIGRVVSTTGVTLPLKLSYSGKIFRANEDFGGEQNEQTQAGIEIIGYPSIKAEIECILSGIGVLNALEIPNFQIELGHAAIYRRVIHLLNLPETAEMDFRLLIQNKSLTGIQQFVTENPSTLDDFILALPRLFGPATTILKQAKNLTTDKGILTALTEMETIVDAVSYAADISVDLGLVQDFHYYTGIIFRGYADLAADNFLSGGRYDHLLEQFTSSSSPAVGLALNLDSLTT,not soluble
7,MGSDKIHHHHHHMNLQQLAVFREVMETGSVSAAARNLGRTQPAVSASLKALEVNLGIALFEREGRRLVPVPEAHYLLSEAAEILARVNTTEMNLVGMRNRTRGSLSVVGMPGPSVYLLPDFVSRFGSKADDLKISLSTRSSPQILNLIAAQAFDVGFCDLGFCDMSAEDLNSSLYHTKTIMSDCLCALPAQHPLAGRAVIDARQLSGERMGVLAGTHSTNRDTRAAFEQAGAVFNPRVEAQYFIPLLRFVEAGQICTVLDPLSAETYKRMNGGEVGIWFARFLPSVRFGYSIVTPKQRPLSLLAQDFVDGWSDHVREIIADHS,not soluble
8,SNAMRSAQVYRWQIPMDAGVVLRDRRLKTRDGLYVCLRDGEREGWGEISPLPGFSQETWEEAQTALLTWVNDWLQGSEGLPEMPSVAFGASCALAELTGVLPEAADYRAAPLCTGDPDDLVLRLADMPGEKIAKVKVGLYEAVRDGMVVNLLLEAIPDLHLRLDANRAWTPLKAQQFAKYVNPDYRARIAFLEEPCKTRDDSRAFARETGIAIAWDESLREADFTFEAEEGVRAVVIKPTLTGSLDKVREQVAAAHALGLTAVISSSIESSLGLTQLARIAAWLTPGTLPGLDTLHLMQAQQIRPWPGSALPCLKREELERLL,soluble
9,MGSDKIHHHHHHMSQYSVTSSSVVKEKASELGFHKVGIAAVDSIDATEAQRLQAWIELGYHADMEWMANPKRQDIRLVMPEARSLVCVALNYYTPHQRPEGEEYAKISRYGWGRDYHKVMHKKLKQLSTWLESLDESVRVRYYADTGPVQDKVLAQLAGIGWIAKNGNVITREYGSWVFLGEVLTNLELESDRPHTEHCGSCTRCLQACPTSAITQPFIVDANRCIAYHTIENRDEKLPQTLTSHLQGWVAGCDICQDVCPWNQRFASTTDIPEFQPYPGNIAPKLLELAQISDQEWNKRFPASALRRIKPEMLRRNALANLDASRQIMTPKVIIFDFDGTIADTVDALVSIANRLAVDFGYRHISPEQLSLLKNLTSREIIKYSGVSLFKIPFLVKKVKGELKNKIPELKPIPGIKEALIELQNKGYKLGIITSNSKDNVTQFLTINDLNHLFDFIYSGITIFGKTTIINNVLRQNQLQPQEVIYVGDETRDIEASKKANIQVIAVAWGFNSSEVLAKQNPDYLIQQPSELLEVMNGY,not soluble
10,MGSDKIHHHHHHMNNLYPYGAPDSNLYARKQEEYDQQIAEAILAGIKREATAIELYRRLADEAPSEQHQHDIRQALENKQASLTQFTNAYRILTGQQPQLEVDDVSFYRFHEGLQKAYEIEVEGYEEYERSSALTENPHVQHAFWTALNTEYENTTRLYRSLHEEADHRVTDHGPRPFVVNIEDETKRNRAFRRALWTGDHLQVTLMSIQVGEDIGLEIHPHLDQFLRVEEGRGLVQMGHRQDNLHFQEEVFDDYAILIPAGTWHNVRNTGNRPLKLYSIYAPPQHPHGTVHETKAIAMAAEEHHHL,not soluble
11,MGSDKIHHHHHHSRSTKGVRELSLFNRHTGEYNNGSYWVDGHYQSEVLADFSHLLRDHRQNVAAPMDKRLFDLLYTLKSTLNTDKEIHVISGYRSPKTNAMLAGKSGGVAKKSYHMQGMAMDIAIPGVNLKTIRDAALSLKLGGVGYYPKSGFVHVDCGPVRHW,not soluble
12,MGSDKIHHHHHHMDALEIHRFLKGKIRTALPVEKVDRETLSLLYTPGVADVARACAEDPEKTYVYTSRWNTVAVVSDGSAVLGLGNIGPYGALPVMEGKAFLFKAFADIDAFPICLSESEEEKIISIVKSLEPSFGGINLEDIGAPKCFRILQRLSEEMNIPVFHDDQQGTAVVVSAAFLNALKLTEKKIEEVKVVVNGIGAAGYNIVKFLLDLGVKNVVAVDRKGILNENDPETCLNEYHLEIARITNPERLSGDLETALEGADFFIGVSRGNILKPEWIKKMSRKPVIFALANPVPEIDPELAREAGAFIVATGRSDHPNQVNNLLAFPGIMKGAVEKRSKITKNMLLSAVEAIARSCEPEPERIIPEAFDMKVHLNVYTAVKGSA,not soluble
13,MLLHTFFDDSKTSVEETPRMFVARLFGSPVSTSIIPTEKESINNNNQETAKMPLDPMDSLWMSKAPQVSDLVVQPNVTFKAVTGGSPHSPSASIPIAGADDSIRPDYDTDCLWKPPTRSARVQKERTISMDSTDSEIGALGGRKFSTNEGASPAPTSPIDAQPRARRMSISEMLFGSSPKSFSWGMESNTTNTTTTSNSGGGDIGERKMSITDDPRFKDFMKHQSKIIGDDGISAAGFKRSNYMKD,not soluble
14,GAMGKVTHSIHIEKSDTAADTYGFSLSSVEEDGIRRLYVNSVKETGLASKKGLKAGDEILEINNRAADALNSSMLKDFLSQPSLGLLVRTYPEL,soluble
15,MLQISHLYADYGGKPALEDINLTLESGELLVVLGPSGCGKTTLLNLIAGFVPYQHGSIQLAGKRIEGPGAERGVVFQNEGLLPWRNVQDNVAFGLQLAGIEKMQRLEIAHQMLKKVGLEGAEKRYIWQLSGGQRQRVGIARALAANPQLLLLDEPFGALDAFTRDQMQTLLLKLWQETGKQVLLITHDIEEAVFMATELVLLSSGPGRVLERLPLNFARRFVAGESSRSIKSDPQFIAMREYVLSRVFEQREAFS,soluble
16,MNINTDIFKIQSNNVMPSRGKILISEPFLHDVTFGRSVVLLVDHTEEGSMGLIINKPLPLMLNDIIKEFKYIEDIPLHKGGPIGTDTLFYLHTLHEIPGTLPINNGLYLNGDFDAIKKYILQGNPIKGKIRFFLGYSGWECEQLIQEIKENTWIISKEENTYLMNEDIKGMWKEALGKLGSKYETWSRFPQVPSLNLEHHHHHH,not soluble
17,MADNINESEIIERLNSAPSVRGFFIATVDVFNESIDGLIQRIFRKDNFAVQSVVGPLLQDSGPLGDLSVRLKLLFGLGVLPDDIYHDIEDIIKLKNHLNSDASDYEFTDPNILEPIKKLHLVKKMGMVQLEVNEPDDDIDLEFYQLQLQRQQQIIKSGLSLAIVEICNELGK,soluble
18,RQNLSSDIDILQSDTMPANAELAGLLQVAVGDTLFRIKVLSKVENRVVDYATMFFPAARLPGLPDAYLRHRSVTRALDDCGVADYTRRFTRVTARLPDAETVDYLGIPKNRPVLHVKSLNVDGEGRPVQYGVTCFNGDLVQLVMEQE,not soluble
19,MIKYSIRGENIEVTEAIREYVETKLSKVEKYFNEAQELDTRVNLKVYREKTAKVEVTILIDSITLRAEDVSQDMYGSIDLVVDKIERQIRKNKTKIAKKYREKIPASQVFTTEFEAEPDEEAVSQRIVRTKNVNLKPMDVEEALLQMELLGHDFFIYTDAEDNTTNVLYKREDGELGLIEAKGNLEHHHHHH,soluble
20,MSLTKYHDLKNKVIVIAGGIKNLGALTAKTFALESVNLVLHYHQAKDSDTANKLKDELEDQGAKVALYQSDLSNEEEVAKLFDFAEKEFGKVDIAINTVGKVLKKPIVETSEAEFDAMDTINNKVAYFFIKQAAKHMNPNGHIITIATSLLAAYTGFYSTYAGNKAPVEHYTRAASKELMKQQISVNAIAPGPMDTSFFYGQETKESTAFHKSQAMGNQLTKIEDIAPIIKFLTTDGWWINGQTIFANGGYTTREGHHHHHH,soluble
21,MNLNFIVPDINMTFGDMKFMGLNRERYVYDRENNKRTDVLESRIYNIASAVQGGQIEVTIPEYAGAKEIPPFADIELKNPKISAMATSQRDSTYANVMWKLEADDIVVKGGSSVKPAAATGGNEKKLEHHHHHH,not soluble
22,MAKRILCFGDSLTWGWVPVEDGAPTERFAPDVRWTGVLAQQLGADFEVIEEGLSARTTNIDDPTDPRLNGASYLPSCLATHLPLDLVIIMLGTNDTKAYFRRTPLDIALGMSVLVTQVLTSAGGVGTTYPAPKVLVVSPPPLAPMPHPWFQLIFEGGEQKTTELARVYSALASFMKVPFFDAGSVISTDGVDGIHFTEANNRDLGVALAEQVRSLL,soluble
